The nature of the test: PAF-AH activity of PAF-AH products expressed in E. coli (hydrolysis of 3H-acetate from [acetyl-3H] PAF). The format is biochemical. Conditions: for PAF-AH activity: amino acid substitution products expressed in E. coli.

B1: C291S: PAF-AH analog, Cys291 mutated to serine (protein)
chain: MVPPKLHVLFCLCGCLAVVYPFDWQYINPVAHMKSSAWVNKIQVLMAAASFGQTKIPRGNGPYSVGCTDLMFDHTNKGTFLRLYYPSQDNDRLDTLWIPNKEYFWGLSKFLGTHWLMGNILRLLFGSMTTPANWNSPLRPGEKYPLVVFSHGLGAFRTLYSAIGIDLASHGFIVAAVEHRDRSASATYYFKDQSAAEIGDKSWLYLRTLKQEEETHIRNEQVRQRAKECSQALSLILDIDHGKPVKNALDLKFDMEQLKDSIDREKIAVIGHSFGGATVIQTLSEDQRFRSGIALDAWMFPLGDEVYSRIPQPLFFINSEYFQYPANIIKMKKCYSPDKERKMITIRGSVHQNFADFTFATGKIIGHMLKLKGDIDSNVAIDLSNKASLAFLQKHLGLHKDFDQWDCLIEGDDENLIPGTNINTTNQHIMLQNSSGIEKYN
On to B1, for which the PAF-AH activity entry is recorded as “+ (1-10 U/ml/OD600 activity)”.

B2: V279F: PAF-AH with phenylalanine for valine at position 279, mutation of PAF-AH deficient patients (protein)
chain: MVPPKLHVLFCLCGCLAVVYPFDWQYINPVAHMKSSAWVNKIQVLMAAASFGQTKIPRGNGPYSVGCTDLMFDHTNKGTFLRLYYPSQDNDRLDTLWIPNKEYFWGLSKFLGTHWLMGNILRLLFGSMTTPANWNSPLRPGEKYPLVVFSHGLGAFRTLYSAIGIDLASHGFIVAAVEHRDRSASATYYFKDQSAAEIGDKSWLYLRTLKQEEETHIRNEQVRQRAKECSQALSLILDIDHGKPVKNALDLKFDMEQLKDSIDREKIAVIGHSFGGATFIQTLSEDQRFRCGIALDAWMFPLGDEVYSRIPQPLFFINSEYFQYPANIIKMKKCYSPDKERKMITIRGSVHQNFADFTFATGKIIGHMLKLKGDIDSNVAIDLSNKASLAFLQKHLGLHKDFDQWDCLIEGDDENLIPGTNINTTNQHIMLQNSSGIEKYN
Consider B2, for which, where the note is “E. coli, control construct lacking the mutation fully active”, the “PAF-AH activity of mutant expression construct” value is given as “no PAF-AH activity”.

B3: C407S: PAF-AH analog, cysteine mutated to serine (protein)
chain: MVPPKLHVLFCLCGCLAVVYPFDWQYINPVAHMKSSAWVNKIQVLMAAASFGQTKIPRGNGPYSVGCTDLMFDHTNKGTFLRLYYPSQDNDRLDTLWIPNKEYFWGLSKFLGTHWLMGNILRLLFGSMTTPANWNSPLRPGEKYPLVVFSHGLGAFRTLYSAIGIDLASHGFIVAAVEHRDRSASATYYFKDQSAAEIGDKSWLYLRTLKQEEETHIRNEQVRQRAKECSQALSLILDIDHGKPVKNALDLKFDMEQLKDSIDREKIAVIGHSFGGATVIQTLSEDQRFRCGIALDAWMFPLGDEVYSRIPQPLFFINSEYFQYPANIIKMKKCYSPDKERKMITIRGSVHQNFADFTFATGKIIGHMLKLKGDIDSNVAIDLSNKASLAFLQKHLGLHKDFDQWDSLIEGDDENLIPGTNINTTNQHIMLQNSSGIEKYN
Consider B3, for which the PAF-AH activity result was “+++ (about 20-40 U/ml/OD600 activity)”.

B4: C334S: PAF-AH analog, cysteine mutated to serine (protein)
chain: MVPPKLHVLFCLCGCLAVVYPFDWQYINPVAHMKSSAWVNKIQVLMAAASFGQTKIPRGNGPYSVGCTDLMFDHTNKGTFLRLYYPSQDNDRLDTLWIPNKEYFWGLSKFLGTHWLMGNILRLLFGSMTTPANWNSPLRPGEKYPLVVFSHGLGAFRTLYSAIGIDLASHGFIVAAVEHRDRSASATYYFKDQSAAEIGDKSWLYLRTLKQEEETHIRNEQVRQRAKECSQALSLILDIDHGKPVKNALDLKFDMEQLKDSIDREKIAVIGHSFGGATVIQTLSEDQRFRCGIALDAWMFPLGDEVYSRIPQPLFFINSEYFQYPANIIKMKKSYSPDKERKMITIRGSVHQNFADFTFATGKIIGHMLKLKGDIDSNVAIDLSNKASLAFLQKHLGLHKDFDQWDCLIEGDDENLIPGTNINTTNQHIMLQNSSGIEKYN
In the case of B4, the PAF-AH activity entry was “++++ (wild type PAF-AH activity of about 40-60 U/ml/OD600)”.

The record behind these values is US5847088A, “Antibodies specific for platelet-activating factor acetylhydrolase” (ICOS Corporation, priority 1995, dated 1998).
